Source: the Human Domainome abundance scans (Beltran et al. 2025)
± gives the uncertainty stated by the source.

B1: Transcription elongation regulator 1-like protein, residues 448 to 504; numbered along this chain, Q5VWI1 (parent)
chain: LPLEERVTHFRDMLLERGVSAFSTWEKELHKIVFDPRYLLLNSEERKQIFEQFVKTR

Variants of: B1
Assay: abundance fitness (aPCA) (normalised: wild type 0, dead -1); higher = more abundant; growth selection in yeast, the domain comes from the species named
Conditions: Homo sapiens

**Q.** For LPLEERVTHFRDMLLERGVSAFRTWEKELHKIVFDPRYLLLNSEERKQIFEQFVKTR [S23R], which abundance fitness is on record?
**A.** -0.811 ± 0.25

**Q.** Which abundance fitness does the source give for LPLEERVTHFRDMLLERGVSAFSTWEKELHKIVFDPRYLLLNSEERKQIFEQFVKPR [T56P] here?
**A.** 0.109 ± 0.27

**Q.** For LPLEERVTHFRDMLLERGVSAFSTWEKELHKIVFDPRYLLLNSEERKQIFEQFVKWR [T56W], which abundance fitness is on record?
**A.** -0.482 ± 0.36

**Q.** With LPLEERVTHFRDMLLERGVSAFSTWEKELHKIVFDPRYLLLNSEERKQIFEQFVKVR [T56V] as the variant, how does the abundance fitness read?
**A.** -0.477 ± 0.21

**Q.** Which abundance fitness does the source give for LPLEERVTHFRDMLLERGLSAFSTWEKELHKIVFDPRYLLLNSEERKQIFEQFVKTR [V19L] here?
**A.** -0.998 ± 0.32

**Q.** Which abundance fitness does the source give for WPLEERVTHFRDMLLERGVSAFSTWEKELHKIVFDPRYLLLNSEERKQIFEQFVKTR [L1W] here?
**A.** -0.717 ± 0.16

**Q.** Which abundance fitness does the source give for LPLEERVTHFRDMLLERGVSAFSTWEKELHKIVFDDRYLLLNSEERKQIFEQFVKTR [P36D] here?
**A.** -0.584 ± 0.4

**Q.** For LPLEERVTHFRDMLLERGVSAFSTWEKELHKIVFDSRYLLLNSEERKQIFEQFVKTR [P36S], which abundance fitness is on record?
**A.** -0.488 ± 0.15

**Q.** With LPLEERVTHFRDMLLERGVSAFSTWEKELHKIVFDERYLLLNSEERKQIFEQFVKTR [P36E] as the variant, how does the abundance fitness read?
**A.** -0.409 ± 0.29

**Q.** With LPLEERVTHFRDMLLERGVSAFSTWEKELHKIVFDTRYLLLNSEERKQIFEQFVKTR [P36T] as the variant, how does the abundance fitness read?
**A.** -0.604 ± 0.17

**Q.** Which abundance fitness does the source give for LPLEEVVTHFRDMLLERGVSAFSTWEKELHKIVFDPRYLLLNSEERKQIFEQFVKTR [R6V] here?
**A.** -0.701 ± 0.18

**Q.** With LPLEETVTHFRDMLLERGVSAFSTWEKELHKIVFDPRYLLLNSEERKQIFEQFVKTR [R6T] as the variant, how does the abundance fitness read?
**A.** -0.772 ± 0.28

**Q.** For LPLEERVTHFRDMLLERGVSAFSTWEKELHKIVFDPRYLLDNSEERKQIFEQFVKTR [L41D], which abundance fitness is on record?
**A.** -1.04 ± 0.18

**Q.** Which abundance fitness does the source give for LPLEERVTHFRDMLLERGVSAFSTWEKELHKIVFDPRYLLMNSEERKQIFEQFVKTR [L41M] here?
**A.** -0.335 ± 0.16

**Q.** With LPLEERVTHFRDMLLERGVSAFSTWEKGLHKIVFDPRYLLLNSEERKQIFEQFVKTR [E28G] as the variant, how does the abundance fitness read?
**A.** -0.701 ± 0.18

**Q.** With LPLEERVTHFRDMLLERGVSAFSTWEKDLHKIVFDPRYLLLNSEERKQIFEQFVKTR [E28D] as the variant, how does the abundance fitness read?
**A.** -0.673 ± 0.27

**Q.** With LPLEERVTHFRDMLLERGVSAFSTWEKYLHKIVFDPRYLLLNSEERKQIFEQFVKTR [E28Y] as the variant, how does the abundance fitness read?
**A.** -0.946 ± 0.21

**Q.** For LPLEERVTHFRDMLLERGVSAFSTWEKELHKIVFDPRYLLLNSEERTQIFEQFVKTR [K47T], which abundance fitness is on record?
**A.** -0.73 ± 0.45

**Q.** With LPLEERVTHFRDMLLERGVSAFSTWEKELHKIVFDPRYLLLNSEERVQIFEQFVKTR [K47V] as the variant, how does the abundance fitness read?
**A.** -0.501 ± 0.17

**Q.** Which abundance fitness does the source give for LPLEERVTHFRDMLLERGVSAFSTWEKELHKIVFDPRYLLLNSEERQQIFEQFVKTR [K47Q] here?
**A.** 0.159 ± 0.12

**Q.** Which abundance fitness does the source give for LPLEERVTHFRDMLLERGVAAFSTWEKELHKIVFDPRYLLLNSEERKQIFEQFVKTR [S20A] here?
**A.** -0.369 ± 0.16

**Q.** With LPLEERVTHFRDMLLERGVGAFSTWEKELHKIVFDPRYLLLNSEERKQIFEQFVKTR [S20G] as the variant, how does the abundance fitness read?
**A.** -0.283 ± 0.1

**Q.** For LPLEERVTCFRDMLLERGVSAFSTWEKELHKIVFDPRYLLLNSEERKQIFEQFVKTR [H9C], which abundance fitness is on record?
**A.** -0.201 ± 0.079

**Q.** Which abundance fitness does the source give for LPLEERVTGFRDMLLERGVSAFSTWEKELHKIVFDPRYLLLNSEERKQIFEQFVKTR [H9G] here?
**A.** -0.554 ± 0.23

**Q.** Which abundance fitness does the source give for LPLEERVTDFRDMLLERGVSAFSTWEKELHKIVFDPRYLLLNSEERKQIFEQFVKTR [H9D] here?
**A.** -0.024 ± 0.43

**Q.** With LPLEERVTHFRDMLLERGVSAFSTWEKELHKIVFDPRYLLLNFEERKQIFEQFVKTR [S43F] as the variant, how does the abundance fitness read?
**A.** -0.328 ± 0.19

**Q.** For LPLEERVTHFRDMLLERGVSAFSTWEKELHKIVFDPRYLLLNSEERKQGFEQFVKTR [I49G], which abundance fitness is on record?
**A.** -0.643 ± 0.17

**Q.** With LPLEERVTHFRDMLLEKGVSAFSTWEKELHKIVFDPRYLLLNSEERKQIFEQFVKTR [R17K] as the variant, how does the abundance fitness read?
**A.** 0.64 ± 0.17

**Q.** Which abundance fitness does the source give for LPLEERVTHFRDMLLERGVSAFSTWEKELHKIVFDPRYLLLNSEERKQIFEQWVKTR [F53W] here?
**A.** -0.05 ± 0.15

**Q.** For LPLEERVTHFRDMLLERGVSAFSTWEKELHKIVFDPRYLLLNSEERKQIFEQGVKTR [F53G], which abundance fitness is on record?
**A.** -0.368 ± 0.1

**Q.** With LPLEERVTHFRDMLLERGVSAFSTWEKELHSIVFDPRYLLLNSEERKQIFEQFVKTR [K31S] as the variant, how does the abundance fitness read?
**A.** -0.789 ± 0.17

**Q.** Which abundance fitness does the source give for LPLEERVTHFRDMLLERGVSAFSTWEKELHKEVFDPRYLLLNSEERKQIFEQFVKTR [I32E] here?
**A.** -0.633 ± 0.18

**Q.** With LPLEERVTHFRDMLLERGVSAFSTWEKELHKDVFDPRYLLLNSEERKQIFEQFVKTR [I32D] as the variant, how does the abundance fitness read?
**A.** -0.852 ± 0.2

**Q.** For LPLEERVTHFRDMLLERGVSAFSTWESELHKIVFDPRYLLLNSEERKQIFEQFVKTR [K27S], which abundance fitness is on record?
**A.** -0.679 ± 0.24

**Q.** For LPLEERVTHFRDMLLERGVSAFSTWEKELMKIVFDPRYLLLNSEERKQIFEQFVKTR [H30M], which abundance fitness is on record?
**A.** -0.515 ± 0.46

**Q.** Which abundance fitness does the source give for LPLEERVTHFRDMLLERGVSAFSTWEKELEKIVFDPRYLLLNSEERKQIFEQFVKTR [H30E] here?
**A.** -0.276 ± 0.29

**Q.** For LPLEERVTHFRDMLLERGVSAFSTWEKELCKIVFDPRYLLLNSEERKQIFEQFVKTR [H30C], which abundance fitness is on record?
**A.** -0.569 ± 0.19

**Q.** For LPLEERVTHFRDMLLERAVSAFSTWEKELHKIVFDPRYLLLNSEERKQIFEQFVKTR [G18A], which abundance fitness is on record?
**A.** -0.588 ± 0.12

**Q.** For LPLEERVTHFRDMLLERLVSAFSTWEKELHKIVFDPRYLLLNSEERKQIFEQFVKTR [G18L], which abundance fitness is on record?
**A.** -0.545 ± 0.15

**Q.** Which abundance fitness does the source give for LPLEERVTHFRDMLLERRVSAFSTWEKELHKIVFDPRYLLLNSEERKQIFEQFVKTR [G18R] here?
**A.** -0.316 ± 0.11

**Q.** Which abundance fitness does the source give for LPLEERVTHFRDMLLERQVSAFSTWEKELHKIVFDPRYLLLNSEERKQIFEQFVKTR [G18Q] here?
**A.** -0.454 ± 0.31

**Q.** For LPLEERVTHFRDMLLERGVSAFSTWEKELHKIVFDPRYLLLNSEEAKQIFEQFVKTR [R46A], which abundance fitness is on record?
**A.** -0.057 ± 0.12

**Q.** Which abundance fitness does the source give for LPLEERVTHFRDMLLERGVSAFSTWEKELHKIVFDPRYLLLNSEETKQIFEQFVKTR [R46T] here?
**A.** -0.815 ± 0.24

**Q.** With LKLEERVTHFRDMLLERGVSAFSTWEKELHKIVFDPRYLLLNSEERKQIFEQFVKTR [P2K] as the variant, how does the abundance fitness read?
**A.** 0.925 ± 0.075

**Q.** With LVLEERVTHFRDMLLERGVSAFSTWEKELHKIVFDPRYLLLNSEERKQIFEQFVKTR [P2V] as the variant, how does the abundance fitness read?
**A.** -0.031 ± 0.34

**Q.** With LPLEERVTHFRDMLLERGVSAFSTWEKELHKIVFDPRYLLLNSEYRKQIFEQFVKTR [E45Y] as the variant, how does the abundance fitness read?
**A.** -0.557 ± 0.1
